Source: the supplement of paper PMC10567573

B1: ELF3 (parent)
chain: LSKEYWDCLEGKKSKHAPRGTHLW

Variants of: B1
Assay: protein stability index of a GFP-peptide fusion (GPS, HEK-293T) (PSI 1-6); higher = more stable
Settings: c terminus: a fixed tail appended
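Further: lentivirally expressed fusions sorted by FACS into six bins by GFP to DsRed ratio, PSI derived from sequencing read proportions per bin multiplied by bin number.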

Point of comparison: LSKEYWDCLEGKKSKHAPRGTGLW [H22G], protein stability index 2.68. Against it:
- LSKEYWDCLEGKKSKHAPRVTHLW [G20V] — lower, 2.11
- LSKEYWDCLEGKKSKHAPRETHLW [G20E] — lower, 2.59
- LSKEYWDCLEGKKSKHAPRLTHLW [G20L] — lower, 2.55
- LSKEYWDCLEGKKSKHAPRKTHLW [G20K] — lower, 2.59
- LSKEYWDCLEGKKSKHAPRTTHLW [G20T] — lower, 2.64
- LSKEYWDCLEGKKSKHAPRSTHLW [G20S] — higher, 3.15
- LSKEYWDCLEGKKSKHAPRYTHLW [G20Y] — higher, 2.78
- LSKEYWDCLEGKKSKHAPRHTHLW [G20H] — lower, 2.53
- LSKEYWDCLEGKKSKHAPRNTHLW [G20N] — higher, 2.74
- LSKEYWDCLEGKKSKHAPRWTHLW [G20W] — lower, 1.94
- LSKEYWDCLEGKKSKHAPRITHLW [G20I] — lower, 1.54
- LSKEYWDCLEGKKSKHAPRPTHLW [G20P] — higher, 2.72
- LSKEYWDCLEGKKSKHAPRRTHLW [G20R] — lower, 2.64
- LSKEYWDCLEGKKSKHAPRQTHLW [G20Q] — higher, 3.06
- LSKEYWDCLEGKKSKHAPRCTHLW [G20C] — higher, 2.73
- LSKEYWDCLEGKKSKHAPRFTHLW [G20F] — lower, 1.75
- LSKEYWDCLEGKKSKHAPRDTHLW [G20D] — higher, 2.96
- LSKEYWDCLEGKKSKHAPRMTHLW [G20M] — lower, 2.44
- LSKEYWDCLEGKKSKHAPRATHLW [G20A] — lower, 2.45
- LSKEYWDCLEGKKSKHAPRGTHMW [L23M] — higher, 3.27
- LSKEYWDCLEGKKSKHAPRGTHWW [L23W] — higher, 2.71
- LSKEYWDCLEGKKSKHAPRGTHFW [L23F] — higher, 2.93
- LSKEYWDCLEGKKSKHAPRGTHQW [L23Q] — higher, 3.59
- LSKEYWDCLEGKKSKHAPRGTHSW [L23S] — higher, 3.41
- LSKEYWDCLEGKKSKHAPRGTHNW [L23N] — higher, 3.29
- LSKEYWDCLEGKKSKHAPRGTHAW [L23A] — higher, 3.24
- LSKEYWDCLEGKKSKHAPRGTHRW [L23R] — higher, 3.25
- LSKEYWDCLEGKKSKHAPRGTHTW [L23T] — higher, 3.29
- LSKEYWDCLEGKKSKHAPRGTHPW [L23P] — higher, 3.13
- LSKEYWDCLEGKKSKHAPRGTHGW [L23G] — higher, 3.42
- LSKEYWDCLEGKKSKHAPRGTHYW [L23Y] — higher, 2.85
- LSKEYWDCLEGKKSKHAPRGTHVW [L23V] — higher, 2.93
- LSKEYWDCLEGKKSKHAPRGTHCW [L23C] — higher, 3.11
- LSKEYWDCLEGKKSKHAPRGTHHW [L23H] — higher, 3.42
- LSKEYWDCLEGKKSKHAPRGTHKW [L23K] — higher, 3.29
- LSKEYWDCLEGKKSKHAPRGTHDW [L23D] — higher, 4.24
- LSKEYWDCLEGKKSKHAPRGTHEW [L23E] — higher, 4.03
- LSKEYWDCLEGKKSKHAPRGTHIW [L23I] — lower, 2.66
- LSKEYWDCLEGKKSKHAPRGTHLC [W24C] — higher, 3.8
- LSKEYWDCLEGKKSKHAPRGTHLV [W24V] — higher, 2.96
- LSKEYWDCLEGKKSKHAPRGTHLF [W24F] — higher, 3.6
- LSKEYWDCLEGKKSKHAPRGTHLQ [W24Q] — higher, 3.8
- LSKEYWDCLEGKKSKHAPRGTHLG [W24G] — higher, 4.07
- LSKEYWDCLEGKKSKHAPRGTHLD [W24D] — higher, 4.02
- LSKEYWDCLEGKKSKHAPRGTHLH [W24H] — higher, 3.98
- LSKEYWDCLEGKKSKHAPRGTHLI [W24I] — higher, 2.94
- LSKEYWDCLEGKKSKHAPRGTHLA [W24A] — higher, 3.96
- LSKEYWDCLEGKKSKHAPRGTHLR [W24R] — higher, 3.54
- LSKEYWDCLEGKKSKHAPRGTHLY [W24Y] — higher, 2.9
- LSKEYWDCLEGKKSKHAPRGTHLN [W24N] — higher, 3.64
- LSKEYWDCLEGKKSKHAPRGTHLT [W24T] — higher, 4.05
- LSKEYWDCLEGKKSKHAPRGTHLP [W24P] — higher, 4.15
- LSKEYWDCLEGKKSKHAPRGTHLS [W24S] — higher, 4.08
- LSKEYWDCLEGKKSKHAPRGTHLM [W24M] — higher, 3.83
- LSKEYWDCLEGKKSKHAPRGTHLL [W24L] — higher, 3.3
- LSKEYWDCLEGKKSKHAPRGTHLE [W24E] — higher, 4.33
- LSKEYWDCLEGKKSKHAPRGTHLK [W24K] — higher, 4.11
- LSKEYWDCLEGKKSKHAPFGTHLW [R19F] — lower, 2.25
- LSKEYWDCLEGKKSKHAPTGTHLW [R19T] — higher, 2.85
- LSKEYWDCLEGKKSKHAPPGTHLW [R19P] — lower, 2.64
- LSKEYWDCLEGKKSKHAPIGTHLW [R19I] — lower, 2.38
- LSKEYWDCLEGKKSKHAPHGTHLW [R19H] — lower, 2.66
- LSKEYWDCLEGKKSKHAPWGTHLW [R19W] — lower, 2.58
- LSKEYWDCLEGKKSKHAPYGTHLW [R19Y] — lower, 2.18
- LSKEYWDCLEGKKSKHAPGGTHLW [R19G] — the same, 2.68
- LSKEYWDCLEGKKSKHAPNGTHLW [R19N] — higher, 2.83
- LSKEYWDCLEGKKSKHAPAGTHLW [R19A] — higher, 3.06
- LSKEYWDCLEGKKSKHAPEGTHLW [R19E] — higher, 3.63
- LSKEYWDCLEGKKSKHAPQGTHLW [R19Q] — higher, 3.79
- LSKEYWDCLEGKKSKHAPCGTHLW [R19C] — lower, 2.6
- LSKEYWDCLEGKKSKHAPSGTHLW [R19S] — higher, 3.29
- LSKEYWDCLEGKKSKHAPDGTHLW [R19D] — higher, 3.21
- LSKEYWDCLEGKKSKHAPVGTHLW [R19V] — higher, 2.78
- LSKEYWDCLEGKKSKHAPMGTHLW [R19M] — higher, 2.83
- LSKEYWDCLEGKKSKHAPLGTHLW [R19L] — lower, 2.27
- LSKEYWDCLEGKKSKHAPKGTHLW [R19K] — higher, 3.06
- LSKEYWDCLEGKKSKHAPRGTYLW [H22Y] — lower, 2.51
- LSKEYWDCLEGKKSKHAPRGTELW [H22E] — higher, 3.29
- LSKEYWDCLEGKKSKHAPRGTVLW [H22V] — lower, 2.43
- LSKEYWDCLEGKKSKHAPRGTNLW [H22N] — higher, 3.23
- LSKEYWDCLEGKKSKHAPRGTQLW [H22Q] — higher, 3.05
- LSKEYWDCLEGKKSKHAPRGTFLW [H22F] — lower, 1.92
- LSKEYWDCLEGKKSKHAPRGTDLW [H22D] — higher, 3.31
- LSKEYWDCLEGKKSKHAPRGTKLW [H22K] — higher, 2.99
- LSKEYWDCLEGKKSKHAPRGTTLW [H22T] — higher, 2.84
- LSKEYWDCLEGKKSKHAPRGTALW [H22A] — lower, 2.56
- LSKEYWDCLEGKKSKHAPRGTLLW [H22L] — lower, 2.12
- LSKEYWDCLEGKKSKHAPRGTPLW [H22P] — higher, 3.03
- LSKEYWDCLEGKKSKHAPRGTWLW [H22W] — lower, 1.95
- LSKEYWDCLEGKKSKHAPRGTILW [H22I] — lower, 2.42
- LSKEYWDCLEGKKSKHAPRGTSLW [H22S] — higher, 3.1
- LSKEYWDCLEGKKSKHAPRGTRLW [H22R] — higher, 2.85
- LSKEYWDCLEGKKSKHAPRGTCLW [H22C] — lower, 2.45
